From patent US20080241919A1, “Defined media for pluripotent stem cell culture” (The Burnham Institute of Medical Research, priority 2003, published 2008) come the findings set out here.

This assay deals with human embryonic stem cells (hESCs). The experiment in a line: Other growth factors in place of bFGF for undifferentiated growth of hESCs. The format is cell-based. As to conditions: feeder- and serum-free conditions. As for the experimental part: All the growth factors were dissolved in a PBS buffer that contained 0.5% BSA, 1 mM DTT (Dithiothreitol) and 10% glyceral as a 10 μg/ml (500×) stock solution and stored in aliquots at −80° C. These factors were added individually to the hESC cultures at a concentration of 20 ng/ml, in the absence of bFGF or in the presence of a low concentration of bFGF (4 ng/ml). Seven days after seeding undifferentiated hESCs on laminin/collagen-coated plates, the cultures were examined.

B1: activin-A: human growth factor tested in place of bFGF (protein, UniProt P08476 311-426, looked up)
Inhibin beta A chain: GLECDGKVNICCKKQFFVSFKDIGWNDWIIAPSGYHANYCEGECPSHIAGTSGSSLSFHSTVINHYRMRGHSPFANLKSCCVPTKLRPMSMLYYDDGQNIIKKDIQNMIVEECGCS
For B1, the “ability to replace bFGF in supporting undifferentiated growth of hESCs” value is “can not replace bFGF”.
